In paper doi:10.1101/2020.03.14.988758 (bioRxiv, 2020):

Biological target: ectodomain construct of MuSK (ectoMuSK) (aa1-472) (Homo sapiens (assumed), UniProt O15146, biotin on the Avitag (site-specific, BirA))
Assay: BLI

Chain of ectodomain construct of MuSK (ectoMuSK) (aa1-472) (O15146 24-472): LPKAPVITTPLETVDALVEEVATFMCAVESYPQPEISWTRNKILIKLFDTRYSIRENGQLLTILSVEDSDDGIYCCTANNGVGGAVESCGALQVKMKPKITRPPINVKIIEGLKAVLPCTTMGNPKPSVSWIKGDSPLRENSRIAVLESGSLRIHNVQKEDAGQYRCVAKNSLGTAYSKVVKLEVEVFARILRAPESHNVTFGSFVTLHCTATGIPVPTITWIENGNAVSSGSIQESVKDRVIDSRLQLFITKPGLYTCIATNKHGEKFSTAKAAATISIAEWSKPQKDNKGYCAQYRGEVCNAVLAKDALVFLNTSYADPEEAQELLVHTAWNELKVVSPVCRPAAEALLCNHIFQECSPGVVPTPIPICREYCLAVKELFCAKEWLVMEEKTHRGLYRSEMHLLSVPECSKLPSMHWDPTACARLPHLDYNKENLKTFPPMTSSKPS

B1: Fab MuSK1A (mature) (Fab, V domains shown)
VH: QVQLVQSGAEVKKPGASVKVSCKTSGYTFNNYDINWVRQAAGQGLEWMGWMNPYSGNTGYAQKFQGRVTMTRNISITTVYMELSSLRSEDTAVYYCAREVRGDTGYGGGSDYWGQGTLVTVSS
VL: SYELTQPPSVSLSPGQTATITCSGDKLDDNYVCWYQQKPGQSPVLVIYQDTMRPSGIPERFSGSNSGNIATLTISGTQAVDEADYYCQAWDGSTVVFGGGTRLTVL
B1 gave a Kd of 0.41 nM.

B2: Fab MuSK1B (mature) (Fab, V domains shown)
VH: EVQLVEWGAGLLKPSETLSLTCAVYGGSFSGDYWWTWIRQPPGKGLEWIGEIDHTGNTNYNPSLKSRLTLSVDMSKNHFSLKLTSVTAADTALYFCARQEGLGYYDSWGQGTLVTVSS
VL: SYELTQSPSVSVSPGQTANITCSGDKLGDRYASWYQQKPAQSPVLVIYQDDRRPSGIPERFSGSNSGNTATLTISGTQGMDEADYYCQAWDGTTVFGGGTKLTVL
In the case of B2, the Kd is reported as 0.44 nM.
